Read-outs that look alike come from different tables or passages of the source.
B1: ssDNA1 (ssDNA)
DNA: GTCGACTTTTTTTTTTTTTTTTTTTT
B2: ssDNA3 (ssDNA)
DNA: AAGTGTATAATGAAAG

Legend:
[1] = molecular target: T1, CspC (C-terminal His-tagged) (Staphylococcus aureus Newman, UniProt O33592 1-66); assay: EMSA
[2] = molecular target: T1, CspC (C-terminal His-tagged); assay: EMSA; remark: listed apart in the source

Binder	binding result [1]	binding result [2]
B1	binds	
B2		no binding
